Drawing on publication PMC9859762, this text covers extent of exchange (labeled cTnC relative to total cTnC in the myofibrils) for one substance.

The target of the assay is thin filaments of membrane-permeabilized (skinned) porcine ventricular myofibrils (pig (endogenous in porcine ventricular myofibrils)) (UniProt P42639). Kind of assay: co-sedimentation; 23 ± 3 uM IANBD-labeled Tn incubated 4 h on ice (or overnight) with skinned porcine myofibrils (~20 mg/ml) in hypotonic rigor buffer with 6 mM ATP and 1 mg/ml BSA; myofibrils pelleted at 1,000 x g and washed; labeled cTnC relative to total cTnC on 18% SDS-PAGE (fluorescence against Coomassie).
Sequence of UniProt P42639 (P42639 whole entry, looked up): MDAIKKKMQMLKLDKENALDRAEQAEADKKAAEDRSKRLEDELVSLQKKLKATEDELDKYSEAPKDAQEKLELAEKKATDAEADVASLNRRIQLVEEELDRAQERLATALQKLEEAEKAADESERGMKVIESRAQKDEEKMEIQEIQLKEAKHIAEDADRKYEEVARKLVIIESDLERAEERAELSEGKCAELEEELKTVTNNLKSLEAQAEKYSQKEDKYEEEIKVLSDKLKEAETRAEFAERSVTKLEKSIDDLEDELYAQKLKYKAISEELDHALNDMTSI

As to “human recombinant troponin complex containing IANBD-cTnC^T53C, wild-type cTnI and wild-type cTnT (from UniProt P63316 1-161; P19429 1-210)”, the extent of exchange (labeled cTnC relative to total cTnC in the myofibrils) came to 41%.
